# B1: GS3: single chain heparanase, subunits linked via (GS)3 glycine-serine spacer, protein SEQ ID NO:21 (protein)
# chain: MLLRSKPALPPPLMLLLLGPLGPLSPGALPRPAQAQDVVDLDFFTQEPLHLVSPSFLSVTIDANLATDPRFLILLGSPKLRTLARGLSPAYLRFGGTKTDFLIFDPKKEGSGSGSKKFKNSTYSRSSVDVLYTFANCSGLDLIFGLNALLRTADLQWNSSNAQLLLDYCSSKGYNISWELGNEPNSFLKKADIFINGSQLGEDFIQLHKLLRKSTFKNAKLYGPDVGQPRRKTAKMLKSFLKAGGEVIDSVTWHHYYLNGRTATREDFLNPDVLDIFISSVQKVFQVVESTRPGKKVWLGETSSAYGGGAPLLSDTFAAGFMWLDKLGLSARMGIEVVMRQVFFGAGNYHLVDENFDPLPDYWLSLLFKKLVGTKVLMASVQGSKRRKLRVYLHCTNTDNPRYKEGDLTLYAINLHNVTKYLRLPYPFSNKQVDKYLLRPLGPHGLLSKSVQLNGLTLKMVDDQTLPPLMEKPLRPGSSLGLPAFSYSFFVIRNAKVAACI
# modifications: hep GS3
# B2: hyaluro: single chain heparanase with grafted loop region from hyaluronidase, protein SEQ ID NO:27 (protein)
# chain: MLLRSKPALPPPLMLLLLGPLGPLSPGALPRPAQAQDVVDLDFFTQEPLHLVSPSFLSVTIDANLATDPRFLILLGSPKLRTLARGLSPAYLRFGGTKTDFLIFDPKKESTFEERSYWAFKDKTPEWPYQEQLLLREHYQKKFKNSTYSRSSVDVLYTFANCSGLDLIFGLNALLRTADLQWNSSNAQLLLDYCSSKGYNISWELGNEPNSFLKKADIFINGSQLGEDFIQLHKLLRKSTFKNAKLYGPDVGQPRRKTAKMLKSFLKAGGEVIDSVTWHHYYLNGRTATREDFLNPDVLDIFISSVQKVFQVVESTRPGKKVWLGETSSAYGGGAPLLSDTFAAGFMWLDKLGLSARMGIEVVMRQVFFGAGNYHLVDENFDPLPDYWLSLLFKKLVGTKVLMASVQGSKRRKLRVYLHCTNTDNPRYKEGDLTLYAINLHNVTKYLRLPYPFSNKQVDKYLLRPLGPHGLLSKSVQLNGLTLKMVDDQTLPPLMEKPLRPGSSLGLPAFSYSFFVIRNAKVAACI
# modifications: hep Hya1
# B3: 106: single chain heparanase linking the 8 and 50 kDa subunits directly, protein SEQ ID NO:17 (protein)
# chain: MLLRSKPALPPPLMLLLLGPLGPLSPGALPRPAQAQDVVDLDFFTQEPLHLVSPSFLSVTIDANLATDPRFLILLGSPKLRTLARGLSPAYLRFGGTKTDFLIFDPKKFKNSTYSRSSVDVLYTFANCSGLDLIFGLNALLRTADLQWNSSNAQLLLDYCSSKGYNISWELGNEPNSFLKKADIFINGSQLGEDFIQLHKLLRKSTFKNAKLYGPDVGQPRRKTAKMLKSFLKAGGEVIDSVTWHHYYLNGRTATREDFLNPDVLDIFISSVQKVFQVVESTRPGKKVWLGETSSAYGGGAPLLSDTFAAGFMWLDKLGLSARMGIEVVMRQVFFGAGNYHLVDENFDPLPDYWLSLLFKKLVGTKVLMASVQGSKRRKLRVYLHCTNTDNPRYKEGDLTLYAINLHNVTKYLRLPYPFSNKQVDKYLLRPLGPHGLLSKSVQLNGLTLKMVDDQTLPPLMEKPLRPGSSLGLPAFSYSFFVIRNAKVAACI
# modifications: hep 106
# B4: GS4: single chain heparanase, W118-(GS)4-E143 spacer, protein SEQ ID NO:25 (protein)
# chain: MLLRSKPALPPPLMLLLLGPLGPLSPGALPRPAQAQDVVDLDFFTQEPLHLVSPSFLSVTIDANLATDPRFLILLGSPKLRTLARGLSPAYLRFGGTKTDFLIFDPKKESTFEERSYWGSGAGSGAEWPYQEQLLLREHYQKKFKNSTYSRSSVDVLYTFANCSGLDLIFGLNALLRTADLQWNSSNAQLLLDYCSSKGYNISWELGNEPNSFLKKADIFINGSQLGEDFIQLHKLLRKSTFKNAKLYGPDVGQPRRKTAKMLKSFLKAGGEVIDSVTWHHYYLNGRTATREDFLNPDVLDIFISSVQKVFQVVESTRPGKKVWLGETSSAYGGGAPLLSDTFAAGFMWLDKLGLSARMGIEVVMRQVFFGAGNYHLVDENFDPLPDYWLSLLFKKLVGTKVLMASVQGSKRRKLRVYLHCTNTDNPRYKEGDLTLYAINLHNVTKYLRLPYPFSNKQVDKYLLRPLGPHGLLSKSVQLNGLTLKMVDDQTLPPLMEKPLRPGSSLGLPAFSYSFFVIRNAKVAACI
# modifications: hep GS-A4
# B5: 109: single chain heparanase linking the 8 and 50 kDa subunits directly, protein SEQ ID NO:20 (protein)
# chain: MLLRSKPALPPPLMLLLLGPLGPLSPGALPRPAQAQDVVDLDFFTQEPLHLVSPSFLSVTIDANLATDPRFLILLGSPKLRTLARGLSPAYLRFGGTKTDFLIFDPKKEKKFKNSTYSRSSVDVLYTFANCSGLDLIFGLNALLRTADLQWNSSNAQLLLDYCSSKGYNISWELGNEPNSFLKKADIFINGSQLGEDFIQLHKLLRKSTFKNAKLYGPDVGQPRRKTAKMLKSFLKAGGEVIDSVTWHHYYLNGRTATREDFLNPDVLDIFISSVQKVFQVVESTRPGKKVWLGETSSAYGGGAPLLSDTFAAGFMWLDKLGLSARMGIEVVMRQVFFGAGNYHLVDENFDPLPDYWLSLLFKKLVGTKVLMASVQGSKRRKLRVYLHCTNTDNPRYKEGDLTLYAINLHNVTKYLRLPYPFSNKQVDKYLLRPLGPHGLLSKSVQLNGLTLKMVDDQTLPPLMEKPLRPGSSLGLPAFSYSFFVIRNAKVAACI
# modifications: hep 109
# B6: GS6: single chain heparanase, subunits linked via (GS)6 spacer, protein SEQ ID NO:26 (protein)
# chain: MLLRSKPALPPPLMLLLLGPLGPLSPGALPRPAQAQDVVDLDFFTQEPLHLVSPSFLSVTIDANLATDPRFLILLGSPKLRTLARGLSPAYLRFGGTKTDFLIFDPKKEGSGSGSGSGSGSKKFKNSTYSRSSVDVLYTFANCSGLDLIFGLNALLRTADLQWNSSNAQLLLDYCSSKGYNISWELGNEPNSFLKKADIFINGSQLGEDFIQLHKLLRKSTFKNAKLYGPDVGQPRRKTAKMLKSFLKAGGEVIDSVTWHHYYLNGRTATREDFLNPDVLDIFISSVQKVFQVVESTRPGKKVWLGETSSAYGGGAPLLSDTFAAGFMWLDKLGLSARMGIEVVMRQVFFGAGNYHLVDENFDPLPDYWLSLLFKKLVGTKVLMASVQGSKRRKLRVYLHCTNTDNPRYKEGDLTLYAINLHNVTKYLRLPYPFSNKQVDKYLLRPLGPHGLLSKSVQLNGLTLKMVDDQTLPPLMEKPLRPGSSLGLPAFSYSFFVIRNAKVAACI
# modifications: hep GS-A6
# Columns and labels:
# [1] = Heparanase enzymatic activity of constructs expressed in Sf9 insect cells (fluorimetric assay); type: biochemical; details: for pH and ionic strength dependence of the enzymatic activity: compared with wild type enzyme from COS-7 cells or HCT-116 cells; for enzymatic activity of the unprocessed purified protein: expressed in Sf9 cells, compared with correctly processed wild type enzyme from COS-7 cells
# Protocol: Recombinant baculoviruses containing the heparanase constructs were generated using the Bac to Bac expression system (Invitrogen). Recombinant baculoviruses were used to infect Sf9 insect cells (50×10^6 cells per T-175 flask) grown in Grace's insect medium with 10% FBS. Cells were collected 48 h after infection, and centrifuged at 500 g for 5 minutes. Cell lysates were prepared as above, except the lysis buffer contained 500 mM NaCl instead of the 150 mM used for COS7, which improved protein quantity in the soluble fraction.
# The proteins were expressed in Sf9 cells and purified by heparin affinity chromatography.
# (§1) Cell lysates from COS7 or Sf9 insect cells were passed through 500 μl Heparin Sepharose CL-6B (Amersham, Piscataway, N.J.) by gravity. The column was washed with 2 ml of lysis buffer, then with 2 ml of 50 mM Tris-HCl pH 7.5, 500 mM NaCl, and heparanase was eluted with 2 ml of 50 mM Tris-HCl pH 7.5, 1 M NaCl and concentrated about 5 fold with a Biomax-30K centrifugal concentrator (Millipore, Bedford, Mass.). 10% glycerol was added and the protein was stored in aliquots at −80° C. Protein concentration was determined using the BIO-RAD Protein Assay.
# (§2) This assay is based on the degradation of FITC-HS monitored by HPLC size exclusion chromatography. 8 μl of purified heparanase was incubated with 5 μL of FITC-HS in a 50 μl of 50 mM MES pH 6, 10% glycerol (heparanase activity buffer, HAB). The reaction mixture was incubated at room temperature for a defined period and the reaction was stopped by the addition of 50 μg of heparin. The mixture was then filtered using Ultrafree-MC centrifugal filter Devices (Millipore). 20 μl were injected on a Superdex 75™ (Pharmacia Biotech) column equilibrated in buffer 50 mM Hepes pH 7.5 150 mM Na2SO4 and connected to a Merck-Hitachi HPLC system. Fluorescent heparan sulfate degradation products were detected by an L-7485 fluorescence detector. Heparanase activity was assessed by monitoring the increase in lower molecular weight heparan sulfate species compared with the intact FITC-HS and quantified by peak area integration.
# [2] = Heparanase enzymatic activity of constructs transiently expressed in COS-7 cells (radiometric or fluorimetric assay); type: biochemical; details: for enzymatic activity: extracted by heparin affinity chromatography; for stability of the construct (conclusion from expression level): expression barely detectable by Western blot
# Protocol: Cells were grown in Dulbecco's MEM (Gibco BRL, Gaithersburg, Md.). All constructs were cloned into the eukaryotic expression plasmid pcDNA3 (Invitrogen). A vector encoding the reporter gene β-lactamase (BLA) was co-transfected in order to check transfection efficiency of each construct. […] Transient transfection of COS7 cells was obtained using the fuGENE 6 Transfection Reagent (Roche, Basel, Switzerland) according to manufacturer's instructions. 24 hours after transfection, efficiency was assessed by fluorimetric detection of BLA-positive cells. 96 hours after transfection, cells were harvested and resuspended in lysis buffer (50 mM Tris-HCl pH 7.5, 150 mM NaCl, 0.5% Triton) containing Complete protease inhibitor cocktail (Roche). The lysis was carried out on ice for 30 minutes. After centrifugation at 14000 rpm for 30 minutes, the heparanase containing supernatants were recovered and partially purified as outlined below.
# Heparanase constructs were expressed in COS-7 cells, which are devoid of endogenous heparanse activity, by transient transfection. Heparanase was extracted from cell lysates by heparin affinity chromatography and quantified on Western blots. In parallel, heparanase enzymatic activity was determined with either the radiometric or fluorimetric assay (FIG. 5). From Western blot analysis, we concluded that wt heparanase as well as the single chain constructs GS3 and hyaluro are efficiently expressed and processed, whereas constructs 106 and GS4 are expressed but not processed. Expression levels of constructs 109 and GS6 were extremely low and barely detectable by Western blot analysis. […] Since GS3 and hyaluro are active but are processed despite the changes that were introduced in the cleavage sites we can not draw any conclusion with respect to the intrinsic activity of the precursors. We therefore proceeded with the expression in cells that are devoid of the enzyme(s) responsible for heparanase processing.
# as §1, §2
# This assay is based on the degradation of tritiated heparan sulfate immobilized on microplate. Each well of the Reacti-Bind Streptavidin High Binding Capacity Coated Plates was pre-treated according to manufacturer's instructions. Initially, different amounts of each fraction of tritiated, biotinylated heparan sulfate obtained after PD-10 desalting column were added to each well (in duplicate) in PBS to a final volume of 100 μl. […]
Molecule,pH and ionic strength dependence of the enzymatic activity [1],enzymatic activity of the unprocessed purified protein [1],enzymatic activity [2],stability of the construct (conclusion from expression level) [2]
B1,undistinguishable from the wild type recombinant enzyme,highly active,showed enzymatic activity,–
B2,undistinguishable from the wild type recombinant enzyme,highly active,showed enzymatic activity,–
B3,–,–,inactive,–
B4,–,–,inactive,–
B5,–,–,–,probably unstable
B6,–,–,–,probably unstable
